Residue numbers refer to the chain shown, from its start.
Legend:
Assay in all cases: SEC-MALS; co-purified complexes at >1 mg/ml on Superdex 200 Increase 10/300 GL in 20 mM Tris pH 8.0, 150 mM KCl, 2 mM DTT; in Fig. 1 core at 200 uM and full-length at 100 uM (4 mg/ml)
Details in all cases: both partners purified
[1] = target: T1, SYCE2 core (amino-acids 57-165) (human, UniProt Q6PIF2 57-165)
T1 construct: SYCE2, human, core, residues 57-165; also called SYCE2 structural core; source: E. coli BL21 (DE3), co-expressed with TEX12, purified (Ni-NTA, amylose, ion exchange, SEC); not shown: MBP, N-terminal, cleaved
T1 sequence (looked up): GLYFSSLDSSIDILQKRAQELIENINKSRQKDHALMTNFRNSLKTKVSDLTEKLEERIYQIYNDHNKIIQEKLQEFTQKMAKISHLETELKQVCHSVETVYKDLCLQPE

[2] = target: T2, SYCE2 core ΔS2C (amino-acids 57-154) (human, UniProt Q6PIF2 57-154)
T2 construct: SYCE2, human, ΔS2C, residues 57-154; source: E. coli BL21 (DE3), co-expressed with TEX12, purified (Ni-NTA, amylose, ion exchange, SEC); not shown: MBP, N-terminal, cleaved
T2 sequence (looked up): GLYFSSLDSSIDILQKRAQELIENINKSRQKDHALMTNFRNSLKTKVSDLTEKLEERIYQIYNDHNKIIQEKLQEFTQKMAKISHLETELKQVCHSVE

[3] = target: T3, SYCE2 core H89E Y115E (human, UniProt Q6PIF2 57-165, H89E | Y115E)
T3 construct: SYCE2, human, core, residues 57-165, with H89E and Y115E; source: E. coli BL21 (DE3), co-expressed with TEX12, purified (Ni-NTA, amylose, ion exchange, SEC); not shown: MBP, N-terminal, cleaved
T3 sequence (looked up): T1 sequence (looked up) with H33E, Y59E

[4] = target: T4, SYCE2 core V149E V153E V156E L160E (human, UniProt Q6PIF2 57-165, V149E | V153E | V156E | L160E)
T4 construct: SYCE2, human, core, residues 57-165, with V149E, V153E, V156E and L160E; The four mutations are read as combined in one construct (one mass is printed for it); also called V149E, V153E, V156E and L160E mutant; S2C hydrophobic core mutant; source: E. coli BL21 (DE3), co-expressed with TEX12, purified (Ni-NTA, amylose, ion exchange, SEC); not shown: MBP, N-terminal, cleaved
T4 sequence (looked up): T1 sequence (looked up) with V93E, V97E, V100E, L104E

stoichiometry N [1]: 1 TEX12 per SYCE2 (4:4) | stoichiometry N [2]: 1 TEX12 per SYCE2 (2:2) | stoichiometry N [3]: 1 TEX12 per SYCE2 (2:2) | stoichiometry N [4]: 1 TEX12 per SYCE2 (2:2)
B1: TEX12 core (amino-acids 49-123) (domain or fragment, human, UniProt Q9BXU0 49-123, looked up)
chain: KDEALEKDLNDVSKEINLMLSTYAKLLSERAAVDASYIDEIDELFKEANAIENFLIQKREFLRQRFTVIANTLHR
notes: TEX12, human, core, residues 49-123; also called TEX12 structural core; source: E. coli BL21 (DE3), co-expressed with SYCE2, purified (Ni-NTA, amylose, ion exchange, SEC); not shown: His6, N-terminal, cleaved
